{"source": "paper PMC2820462", "about": "“Inhibition of receptor tyrosine kinase signalling by small molecule agonist of T-cell protein tyrosine phosphatase” (BMC Cancer, 2010)", "binders": {"B1": {"name": "α1-cyt peptide (α1 cytoplasmic specific sequence lacking the conserved domain, RPLKKKMEK) (peptide)", "peptide": "RPLKKKMEK"}}, "target": "T1, T-cell protein tyrosine phosphatase, 45 kDa form (TC45) (UniProt P17706-2 1-387)", "T1 sequence (looked up)": "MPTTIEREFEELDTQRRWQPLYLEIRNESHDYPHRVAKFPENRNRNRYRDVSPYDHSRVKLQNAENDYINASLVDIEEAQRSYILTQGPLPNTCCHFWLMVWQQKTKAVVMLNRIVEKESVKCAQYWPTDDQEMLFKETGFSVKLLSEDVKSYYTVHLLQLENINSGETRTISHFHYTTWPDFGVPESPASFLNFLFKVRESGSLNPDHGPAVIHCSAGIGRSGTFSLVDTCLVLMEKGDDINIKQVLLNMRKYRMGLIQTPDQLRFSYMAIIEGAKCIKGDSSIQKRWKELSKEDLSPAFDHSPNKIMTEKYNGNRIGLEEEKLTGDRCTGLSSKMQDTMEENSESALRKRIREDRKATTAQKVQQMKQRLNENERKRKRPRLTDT", "assay": "cell-based or functional assay"}
{"binder": "B1", "values": [{"measurement": "activation of recombinant TC45 in DiFMUP phosphatase assay by 10 μM α1-cyt peptide", "value": 2.4, "unit": "fold"}]}
